In the DeepSol protein solubility set:

Test: soluble on expression in E. coli; label from the status in PepcDB or PDB records

Sequence	soluble on expression in E. coli
MANTPGGGALIVGIEDKTGRIIGTELDIDWLRQGIFTRIDVAPDVVAKRVLGQRVLAIYVAAAAEPIEDTSDRLRWRVGDSCRPVDLEHHHHHH	not soluble
MTDAALPPLIQQMLQPEFYPHVVEAPVQLYQTHCSYVLLTGPYAYKLKKPVYFGFLDYSTLEKRQHFLQEELRLNQRTAAPLYQQVLAISQAGDRYQFAETEPAAEYVLQMKQFPKGCLFSEQFESGQLDASVMRQLAAVVAEFHTKTWVDDHVRSYGQVAQIRKAFDENYQQTLHYIGGPQTQAQFDTTKAFSDRFFDTKADLFAARLAADKIRECHGDLHLGNLCRWDNQLFLFDCIEFNEPFRFVDTMYDIAFLVMDLDARGRQDLGTAFLNAYAEMSGDWEGLQVLPLYLSRQAYVRAKVTSFLLDDPAIDSDRRQQAFDQAAAYYQLAHAYAQPAQQGELLLLSGLSGSGKSTLGRTIAERQRAIILRSDAVRKHLAGISLLERGGPEIYSPEMSDRTYGRLLYLGLGLAQAGYRVILDAKYDRQAYRGAALTAAQAQQIPIQILHCQASEETLRQRLQARQGDIADATADLLAQQLTAWQDFSEDEQGFVRAIATEKPLTQQLDALGFLEHHHHHH	not soluble
MGSDKIHHHHHHMTPIAQRDGQAIQLVGFDGDDTLWKSEDYYRTAEADFEAILSGYLDLGDSRMQQHLLAVERRNLKIFGYGAKGMTLSMIETAIELTEARIEARDIQRIVEIGRATLQHPVEVIAGVREAVAAIAADYAVVLITKGDLFHQEQKIEQSGLSDLFPRIEVVSEKDPQTYARVLSEFDLPAERFVMIGNSLRSDVEPVLAIGGWGIYTPYAVTWAHEQDHGVAADEPRLREVPDPSGWPAAVRALDAQAGRQQ	not soluble
SSTIGSFEGFQAVSLKQEGDDQPSETDHLSMEEEDPMPRQISRQSSVTESTLYPNPYHQPYISRKYFATRPGAIETAMEDLKGHVAETSGETIQGFWLLTKIDHWNNEKERILLVTDKTLLICKYDFIMLSCVQLQRIPLSAVYRICLGKFTFPGMSLDKRQGEGLRIYWGSPEEQSLLSRWNPWSTEVPYATFTEHPMKYTSEKFLEICKLSGFMSKLVPAIQNAHKNSTGSGRGKKLMVLTEPILIETYTGLMSFIGNRNKLGYSLARGSIGF	soluble
MGSDKIHHHHHHMNTPAPRKRREMKIKTATVTGVRQISPDLIRFSFDCPEIVGADLGFTDHYIKILFVPAGADYSWPFDMAEIAETQPRELQPVRRTYTFRTVDTVAGTFDIDFVAHGTDGLAGPWAQQAQVGDVIAFGGPGGAWKPETTYEHYVLAGDEAAAPAIFAALEHLPAGTTAKAFIEISSNEARFNAPASDNIEVVWVPRDGATHGTLLIDALRQDGYPTKKTSWFIHGVAEMVKETRKFLFVEGNVDKADASISGYWRLGMTEDQWQASKREFNEQNEAEELALSKA	not soluble
MNVGDRVRVTSSVVVYHHPEHKKTAFDLQGMEGEVAAVLTEWQGRPISANLPVLVKFEQRFKAHFRPDEVTLIED	soluble
MAHHHHHHMSLTDIEEAETVELLSEDSCSTMSASSEDVGATTVDTSLPLTANATEEQLRRRMLHECACIPELRPQPAWLEESGAAGDGPSASTTEMNWDVAHADHLVVAVRWRVAPTSPGTGCPSLHTTPWVPYAVPLAKVIASRTMAATDTASTVTSTTSSSGGGSSATVQPLGSVQLPLGRSMFLLAAQRSSLVPRAWDSGVAAESLVNVAASISRAQCTLHLHYAAAKTPQAPSSLRTRPVCRSFDVFAISPTTALLGIALQPHQRYHIKRKRGTGKSAHASEDQPCDANGVLTLRVGPYCHVDVALDELPSEPRVSGSAGTCPSITINTYNGRHAHTTRSGQTQDSPAVHRTSACRSGVAREPPAAAMQLQHGSTASLITGDSTAVLATLSEMSDHVALSETSGHEHDGPVVAGSQEVAAAPSHTSITGSLKRRRPAAARGRAAEAVVRRVGNAEAAEGGDVDEADAAVSHSVTTTPSEIVLFTTGMRLSDAEEKTLKELGALVNPHLRLARYARVLAAQRPLVRSVKLLTVLPYVQDVVHQSWLDAVLRTRSLDLPLEGFAYKERKLAGSIESENSFDLRETMRKAPTERQRLFAQQHFWVHKSATPQEPPMNDLKTVVAASGGIITRCVLDADVLVLPKHKPTLSCWRGIAQQLGGTGRASTSSASASTTPTLAQRKQAGVLFVVPDDIFKCVLQQRRLSASSVTLPWQLLTEAAAARGTTGAARVGRRPSQPTRKTPRASTTQRSPRRKSCKRSQ	soluble
MGSDKIHHHHHHMVQTPSKPITLDEFLKLPETEPASEYIEGKIIQKPMPQGKHSAIQSECVSVINSVVKPQRIARAFLELRCTFGDHSTVPDISVFIWSRIPREENGEIANIFLIAPDWTIEILSPDQSQTKVTKNILHCLKHGTQMGWLIDPDEQTVFVYRPQQETEVFDEPDALVPVPSFASELHLSIKDLFSWLL	not soluble
MAHHHHHHMASADSKAVLLSSQPGATAYSSTVAVKVQAGRMILQDGIVRPLLGSGFLFLLREGLLQDTVLTWVSSDGEEQCRVTLPPGRVKVSWVEKCRPSRVLLFDIDNGKQPLFFWMQSRSDELDEPVMHRIQHAIERNRQQAVAQHGRREIKMGTLQNILSDLWSEALAHDVNLVDILGSEKLLKALQEDPGFYTLRLKDYLPLGELDSGVPLDLKKLMNDRQVQWTAEILGTLLRHETTYSQLSASFLNGTMLWGANVTSFIVSIINIFLPQNEQQQMGESDN	not soluble
MSDEIVTNKSVTYVNNTTPVTITSSELDLRSCYQDDEVVIEVHAAALNPIDFITHQLCNSYIFGKYPKTYSRDYSGVIIKAGKDVDNRWKVGDKVNGMYSHIYGERGTLTHYLILNPAKDVPITHMVEVPKDENDPYDDFVYAAAWPLTFGTAFSTLYDFKKDWTSDSKVLVIGASTSVSYAFVHIAKNYFNIGTVVGICSKNSIERNKKLGYDYLVPYDEGSIVENVKKLKQSVLENDKFDMIFDSVGNHDFFPVIDQFLKPKAKNSFYVTIAGNNKADYKNISWRDFVSLSSILKAINPFKKYNWRFGHPYPPNNFIEVGNEMIKKGTYKPPIDSVYEFDQYKEAIDRLMSNRAKGKVVVKMK	soluble
MDYDVLILGGGIIGCSIAYELSKYSLNVSLIEKEYEIGDDTSIVNSDLVYDGIESKYNFNYGLETEGNQEIEKICSVLSVPFKKVNAIVCSRDKENEDTINKIYSRGIKRGIKDASLANIESAIAKSIILKDINNKGIELKDIGIVCADDLALAYGEVAFDNGVNFRLNEKVIEIKKISKGFNVTTSKNKFTCKIVINTIPDASSPILVDGKEDKGSKKNISNLIYFVLDRKVKASLKHAIAVLSNKGDSTYIFRDFEDNIIVKIVTKDDCLYDEALDKLKAVIGDIEEEDIIYFYKSRFINDKIVITNKLDSDGYIKVQCKSYAISTVTPSISRNVGEAIVKNLNCKLKKEFYGRRREIYRFRDMSNKQRQKLIATNPDYGKIICRCNQVTEGEIIDSIRRPLGARTLNGIKRRTGVFNGECLGTCCIDKIVKILAKETNKSLTEVIKKTENSSIVKGRIKEFDEMLEHHHHHH	not soluble
MGSDKIHHHHHHGIDNGTPKSKNEIGVNTIVKKSSRAAVTSNSSFTSFKLHAYIVKSNDIATSGWGNAYMDGIEYKGGQGSWATTSGTFYWPITEMQFFGYTNDVTYTAPASSNAYPTISYTLPDTPADQKDIIVAYSKDVTKPSDNTLNLTFQHILTRINFAVKLVDSSYTYTVESITITGAKGGTATYTFGGTEGKGGNWNITGSAPASGYSYTFDNTVTAKDGIYDYTQNDNSLMLYPQSLTDAKIIVKYKTEKDNATFFNDSKEVSLTGEWTNGQSIRYILTLPVGAEEMSVNTTYDENWDATDNEQTPKNPAS	not soluble
MGSDKIHHHHHHMQISNEDYEQLKPLLFSLGYRLLGSVTDAEDLVQETFLRAYQAEEREINNKKAYLCKMMTNRCLDVLKSARRKREQYVGPWLPEPLLITSDDPSEAILQKEGLSMAYLRMMEHLTPHERAVFLLREVFTFSYREIASMMEKKEDNCRKLYSRAKEKLSAVKGESLHYENNRSVVDRFIHSFQTEDQGDLLELLSDHVTLYTDGGGKVRAALRPIYTKDHVAAFLFGIAKKRPNDFYVEVKNVNGQPALISYADSKLYNVICFYIVGGQIQDIYIIMNPEKLPSNG	not soluble
MQGKNTIVTTGDYSIGLLSQTSGNLNTDTIIRVNSDGSVTPSFSDGDDTFIVTAGNHAVGVLACASPGSACACVSSLDEESTADTGSNENNAIAKLDMAKGEITTHGTESYAAYANGTVVKAGDTLDYTNASVTLTDVDITTHGDNAHAIAARQGTVSFNQGEIYTTGPDAAIAKIYNGGTVTLKNTSAVAHQGSGIVLESSINGQEATVDILSGSSLRSANEILYHKDETSNVTITDSEVSSAADVFINNIKGHLTVDATNSKITGSANISTDDNTHTYLSLSDNSTWDIKADSTVSNLTVDNSTVYISRADGRDVEPTRLTITENYVGNNGVLHLRTELDDDNSATDKVVINGNTSGTTRVKVTNAGGSGAYTLNGIEIISVEGESNGEFIKDSRIFAGAYEYSLTRGNTEATNKNWYLTNFQATSGGETNSGGSSAPTVAPTPVLRPEAGSYVANLAAANTLFVMRLNDRAGETRYIDPVTEQERSSRLWLRQIGGHNAWRDSNGQLRTTSHRYVSQLGGDLLTGGFTDSDSWRLGVMAGYARDYNLTHSSVSDYRSKGSVRGYSAGLYATWFADDISKKGAYIDSWAQYSWFKNSVKGDELAYESYSAKGATVSLEAGYGFALNKSFGLEAAKYTWIFQPQAQAIWMGVDHNAHTEANGSRIENDANNNIQTRLGFRTFIRTQEKNSGPHGDDFEPFVEMNWIHNSKDFAVSMNGVKVEQDGVSNLGEIKLGVNGNLNPAASVWGNVGVQLGDNGYNDTAVMVGLKYKF	not soluble
GPGSMLQSLVNSIVFVPPRDPNSLQRVQLLQRKRHMSFTSKKSGERISYFHFDPKGDLVTKDNPERVVRSSMVLLFHHGNAEDLGSAFSYAQSMACVFGVAVVVYDYCGYGFSGFPDAAKPAEVTEKSVYSDADHMYAHLLSLGYPAHRIIIVGRSVGGGPACYLAEKHHKKVGGLVLISTFTSCLRVVSSCCLPYLCCCVDLFPNYRRIEHIMECPVLVMHGTHDNVVPHHCSSELLEDIVARRNNALQRLLKKREGARANQAKRSSVLGAASTGPTNTTTASATIIVADEALVTAQPPLDGETVSVFDLYRRAYDGLPEAVRRVAEGRLDVTAADASIGVFHRWFAGCGHNDIEAREGHAFSDMFDYFVRFSTAFSMEREALLLAKPVTGAAKASRDSLNRADSEVRE	not soluble
MSLTPRVNSGGAVVADAYGRPLKDLRIAVTPECNLDCFFCHMEGATESGPMRPGSWSPVLSVEDYDIIGEAASRLGVDSFKLTGGEPLIRGDVDKIVAVLARYGEVSMTTNGILLPLKASSLKRAGLARVNVSLHSISEEVYEKITRRRAVKLALKGVEAALKAGLRVKVNMVLLRGLNEGEFWRLLRLAEDLGFDLQVIEVHPAGRGRKVLSSFRRPIDVVEERLSSMAVAVETGRLHNRRVYRLPSGVRVYLVDPVENPVFCMGCYRVRLTWDGRLLPCIYWKGPYPSVAEALKRGGSREEKVWRVMKILLEANALRRPTYLFRLHDGQEPQAPSTGRGLRLTLPGKAKAERLAYSTLKAPLIEG	not soluble
MKPRGICFFDMDGTLLNSESKVLDTSLQALDKLRENNVIPVIATGRTLIEISHQMKITGIESAVMMNGQMAIFEGEKVYEDVIDADLLDRLTEEAKSQNVEVCYYNDKRIGATASTPVVKAHYDFLGEPMPKVRPNMYKEETINMALLLLETGDDYFPERFPELQFVRNTPFSNDVLRKGGSKAVGISKLLEVMGYQDVPTYAFGDGMNDLEMFGAVDYAIAMENAVPLLKEKADFVTKDNNSDGIMLGLKQFDLI	not soluble
MKAIPSNVWATRPTKPFTCFFCPMIVLTEDGSPTILSPHYGEYYHSIHGACRESEHVFVHTGLLHRLESFDPSGTLYLFEVGFGTALNALLTLREQRCRGLSIHYSAIEKFPLERDVYEHLRFSVGMADEDKLLQSLHHAPWGMDCEICPGFTLHKIASDLTDFTFRKPIDLIYFDAFSPEAQPELWSEEIFIRMVAACRSGAVLATYCAKGEIRRRLTRAGFHMERLPGPPGKREILRGTYYLEDRGDSL	not soluble
